# Test results published in patent publication EP4703384A1.
# How the values were obtained:
# [1] = molecular target: human GPRC5D protein (human) (UniProt Q9NZD1); assay: FACS on RPMI-8226 cells; negative control
# [2] = molecular target: human GPRC5D protein (human) (UniProt Q9NZD1); assay: FACS on MM.1S cells; negative control
# [3] = molecular target: human GPRC5D protein (human) (UniProt Q9NZD1); assay: FACS on NCI-H929 cells; negative control
# Chain of human GPRC5D protein (human) (Q9NZD1 whole entry): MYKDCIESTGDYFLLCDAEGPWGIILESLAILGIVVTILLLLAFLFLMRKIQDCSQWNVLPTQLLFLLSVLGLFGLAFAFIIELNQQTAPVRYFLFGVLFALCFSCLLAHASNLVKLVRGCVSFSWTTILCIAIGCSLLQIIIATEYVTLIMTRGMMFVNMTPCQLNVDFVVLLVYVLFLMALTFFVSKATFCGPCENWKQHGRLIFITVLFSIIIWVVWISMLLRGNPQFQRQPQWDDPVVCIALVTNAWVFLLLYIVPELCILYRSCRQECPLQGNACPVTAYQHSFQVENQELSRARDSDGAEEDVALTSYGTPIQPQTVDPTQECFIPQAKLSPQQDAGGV
substance,measurement,setting,value
"hIgG1 monoclonal antibody (Biointron, Cat. No. B117901)",Top(MFI),[1],3860 MFI
same,Top(MFI),[2],6770 MFI
same,Top(MFI),[3],4180 MFI
